According to patent publication US12448436B2, “Antibody specifically binding to GRP94 or antigen-binding fragment thereof, and uses thereof” (KOOKMIN UNIVERSITY INDUSTRY ACADEMY COOPERATION FOUNDATION, priority 2020, dated 2025):
“Also recorded” adds a separate entry of the source.

Experiments:
[1] = Protein aggregation index (UV absorbance 280/340 nm); assay type: physicochemical; details: antibody in PBS; 100×(Abs340/[Abs280−Abs340]); control HCl-aggregated GRP94 antigen
Procedure: To evaluate the production the antibodies (B5, E5, 2H5, and 3G7) of the present disclosure and the antibody aggregation after purification, each of the antibodies was added to PBS and absorbance was read at 280 nm and 340 nm using NanoDrop 2000 (Thermo Fisher Scientific). The protein aggregation index was calculated from UV absorbance according to the following equation. As a control, the GRP94 antigen that was induced by treatment with HCl to aggregate was used. Protein Aggregation Index=100×(Abs340/[Abs280−Abs340]) Equation 1

recombinant human GRP94 = target: T1, recombinant human GRP94 (Homo sapiens, UniProt P14625); test: ELISA binding to recombinant human GRP94; details: high specificity stated for human and rat antigens
T1 construct: made in house; host or cells: Expi293 cells (pcDNA 3.4)
Procedure: (§1) Each well of 96-well plates was coated with 0.1 μg of recombinant human GRP94 (rhGRP94), blocked with 3% (w/v) bovine serum albumin (BSA) in phosphate buffered saline (PBS) for 2 hours at 37° C., and incubated with 100 μL of GRP94 targeting IgG (20 μg/mL) for 2 hours at 37° C. The plates were washed thrice with 0.05% PBS-T, and 100 μL of a 500:1 dilution of the secondary antibody anti-human Fc Ab (Sigma-Aldrich) was added to each well. Incubation at 37° C. for 1 hour was followed by three rounds of washing with 0.05% PBS-T. Then, 100 μL of 3,3′,5,5′-tetramethylbenzidine (1-step ultra TMB) substrate solution was added to each well. Finally, optical densities were measured at 450 nm using a microplate reader (Synergy H1, BioTek).
The four GRP94 IgGs (B5, E5, 2H5, and 3G7) of the present disclosure were measured for equilibrium dissociation constant (KD). In this regard, each well of 96-well plates was coated with 100 ng of rhGRP94 and blocked with 3% (w/v) bovine serum albumin (BSA) in PBS at 37° C. for 2 hours. Next, the plates were incubated with a concentration gradient of 0 nM to 500 nM of each clone for the GRP94 IgGs at 37° C. for 2 hours. The use of a secondary antibody and the measurement of optical density were conducted as described for the ELISA.
(§2) After 96-well plates were coated with BSA, recombinant human GRP94, recombinant rat GRP94, and recombinant monkey GRP94, their binding affinity for each antibody (B5, E5, 2H5, or 3G7) was measured by ELISA.

recombinant rat GRP94 = recombinant rat GRP94 (Rattus norvegicus, UniProt Q66HD0); test: ELISA binding to recombinant rat GRP94; details: high specificity stated for human and rat antigens
Procedure: as §1, §2

recombinant monkey GRP94 = recombinant monkey GRP94 (Macaca fascicularis, UniProt Q4R520); test: ELISA binding to recombinant monkey GRP94
Procedure: as §1, §2

HCT8 cells = test: In vitro CRC proliferation assay, HCT8; assay type: cell-based, human; details: 20 μg/mL; for cell index at the end point: 72 hours, MOCK 4.8±0.25; for cell growth inhibitory ability: end point, relative to the control PBS
Procedure: (§3) The four anti-GRP94 human IgG antibodies B5, E5, 2H5, and 3G7 of the present disclosure were examined in vitro for effect on CRC cell proliferation. […] The culture medium was removed by suction and the cells were washed with 10 mL of phosphate buffered saline (hereinafter PBS). After removal of PBS by suction, the cells were treated 2 mL of TrypLE Express Enzyme at 37° C. for 3 minutes in a 5% CO2 incubator. Thereafter, the cells were added with 8 mL of the culture medium, transferred to 15-mL tube, and centrifuged at 500×g for 5 minutes. After removal of the supernatant, the cells were suspended in the culture medium. From a small portion of the cell suspension, the cells were counted using the Countess II Automated Cell Counter. […] The 96-well plates were mounted on the Incucyte Zoom system. With the microscope magnification set at 4×, images were collected at intervals of 2 hours for 72 hours. From the collected images, cell growth was monitored using the IncuCyte FLR live content imaging system (Essen Bioscience, Ann Arbor, MI, USA).

HCT116 cells = test: In vitro CRC proliferation assay, HCT116; assay type: cell-based, human; details: 20 μg/mL, end point, relative to the control PBS
Procedure: The four anti-GRP94 human IgG antibodies B5, E5, 2H5, and 3G7 of the present disclosure were examined in vitro for effect on CRC cell proliferation. For use in the efficacy assay, the four cetuximab-resistant colorectal cancer cell lines HCT116, HT29, LoVo, and HCT-8 were each grown in a culture medium (HCT116, HCT8, HT29, and LoVo: RPMI1640+10% FBS+1% Penicillin-Streptomycin) at 37° C. in T-75 flask in a 5% CO2 incubator until reaching about 80-90% confluency. The culture medium was removed by suction and the cells were washed with 10 mL of phosphate buffered saline (hereinafter PBS). After removal of PBS by suction, the cells were treated 2 mL of TrypLE Express Enzyme at 37° C. for 3 minutes in a 5% CO2 incubator. Thereafter, the cells were added with 8 mL of the culture medium, transferred to 15-mL tube, and centrifuged at 500×g for 5 minutes. After removal of the supernatant, the cells were suspended in the culture medium. From a small portion of the cell suspension, the cells were counted using the Countess II Automated Cell Counter. […] The 96-well plates were mounted on the Incucyte Zoom system. With the microscope magnification set at 4×, images were collected at intervals of 2 hours for 72 hours. From the collected images, cell growth was monitored using the IncuCyte FLR live content imaging system (Essen Bioscience, Ann Arbor, MI, USA).

HT29 cells = test: In vitro CRC proliferation assay, HT29; assay type: cell-based, human; details: 20 μg/mL; for cell index at the end point: 72 hours, MOCK 2.94±0.04; for cell growth inhibitory ability: end point, relative to the control PBS
Procedure: as §3

LoVo cells = test: In vitro CRC proliferation assay, LoVo; assay type: cell-based, human; details: 20 μg/mL; for cell index at the end point: 72 hours, MOCK 3.76±0.19; for cell growth inhibitory ability: end point, relative to the control PBS
Procedure: as §3

[2] = tested on: HCT116 subcutaneous xenograft; test: Tumor growth inhibition by sole administration, colorectal xenograft model; assay type: in vivo, Balb/c nude mice; details: 10 mg/kg intravenous twice per week for six weeks; for tumor growth inhibition compared to PBS: n=9
Excerpt: For use in assaying in-vivo efficacy of the four antibodies of the present disclosure, a subcutaneous xenograft mouse model was established by injecting the metastatic colorectal cancer cell line HCT116 (5×10^6 cells) into 6-week-old Balb/c nude mice.

[3] = In vivo hepatotoxicity and nephrotoxicity in colorectal xenograft model; set-up: species or system Balb/c nude mice; details: mouse, 10 mg/kg
Procedure: To assay the four antibodies of the present disclosure for in vivo hepatotoxicity and nephrotoxicity, the same xenograft model as in Example 11 weighed every week. After six weeks of the experiment, GOT (glutamic oxaloacetic transaminase), GPT (glutamate pyruvate transaminase), and TBIL (total bilirubin) were measured for hepatotoxicity assay while BUN (blood urea nitrogen) and CRE (creatinine) were measured for nephrotoxicity assay. The results are depicted in FIGS. 27a and 27b.

recombinant monkey GRP94, sequence (Q4R520 22-804): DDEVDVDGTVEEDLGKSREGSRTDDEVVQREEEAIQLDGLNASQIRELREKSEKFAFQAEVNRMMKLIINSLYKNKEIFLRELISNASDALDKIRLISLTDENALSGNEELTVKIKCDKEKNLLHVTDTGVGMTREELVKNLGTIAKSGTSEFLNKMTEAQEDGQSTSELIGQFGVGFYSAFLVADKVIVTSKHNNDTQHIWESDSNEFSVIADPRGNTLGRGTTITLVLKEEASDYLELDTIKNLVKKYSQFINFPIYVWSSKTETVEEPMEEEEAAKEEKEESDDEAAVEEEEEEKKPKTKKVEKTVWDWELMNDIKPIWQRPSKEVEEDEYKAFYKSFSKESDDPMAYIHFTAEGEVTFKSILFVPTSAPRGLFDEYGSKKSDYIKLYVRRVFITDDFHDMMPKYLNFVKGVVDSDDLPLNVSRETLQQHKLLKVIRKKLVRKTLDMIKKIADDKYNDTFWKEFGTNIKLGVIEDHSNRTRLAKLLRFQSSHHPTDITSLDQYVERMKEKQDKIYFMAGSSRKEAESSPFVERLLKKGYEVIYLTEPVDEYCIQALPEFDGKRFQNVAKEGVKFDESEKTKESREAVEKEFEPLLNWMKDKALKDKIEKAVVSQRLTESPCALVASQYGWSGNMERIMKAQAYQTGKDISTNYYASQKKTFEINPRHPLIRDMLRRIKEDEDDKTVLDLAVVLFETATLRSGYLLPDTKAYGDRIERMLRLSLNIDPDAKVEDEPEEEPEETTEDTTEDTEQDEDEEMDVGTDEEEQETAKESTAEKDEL
recombinant rat GRP94, sequence (Q66HD0 22-804): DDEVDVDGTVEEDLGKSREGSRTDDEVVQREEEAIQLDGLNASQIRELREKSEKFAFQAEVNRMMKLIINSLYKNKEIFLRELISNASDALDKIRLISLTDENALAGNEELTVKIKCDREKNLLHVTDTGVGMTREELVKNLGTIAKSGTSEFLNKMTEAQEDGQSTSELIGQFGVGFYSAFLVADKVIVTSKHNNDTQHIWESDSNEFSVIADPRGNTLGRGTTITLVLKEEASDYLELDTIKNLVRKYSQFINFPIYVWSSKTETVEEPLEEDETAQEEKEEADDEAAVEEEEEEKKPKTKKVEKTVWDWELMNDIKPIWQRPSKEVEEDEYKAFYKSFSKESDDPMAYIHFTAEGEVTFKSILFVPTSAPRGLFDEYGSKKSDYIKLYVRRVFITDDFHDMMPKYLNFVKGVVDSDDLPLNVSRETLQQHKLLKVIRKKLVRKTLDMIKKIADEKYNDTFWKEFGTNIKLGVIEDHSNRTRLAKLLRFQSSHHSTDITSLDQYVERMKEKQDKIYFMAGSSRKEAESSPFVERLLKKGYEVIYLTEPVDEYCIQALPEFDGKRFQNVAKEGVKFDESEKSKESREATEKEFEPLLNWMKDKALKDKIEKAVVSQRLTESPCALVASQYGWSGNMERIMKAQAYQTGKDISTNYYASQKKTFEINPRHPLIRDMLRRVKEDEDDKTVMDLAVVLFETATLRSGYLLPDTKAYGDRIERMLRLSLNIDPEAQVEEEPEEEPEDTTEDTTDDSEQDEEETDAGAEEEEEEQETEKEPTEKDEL
T1 sequence (P14625 22-803): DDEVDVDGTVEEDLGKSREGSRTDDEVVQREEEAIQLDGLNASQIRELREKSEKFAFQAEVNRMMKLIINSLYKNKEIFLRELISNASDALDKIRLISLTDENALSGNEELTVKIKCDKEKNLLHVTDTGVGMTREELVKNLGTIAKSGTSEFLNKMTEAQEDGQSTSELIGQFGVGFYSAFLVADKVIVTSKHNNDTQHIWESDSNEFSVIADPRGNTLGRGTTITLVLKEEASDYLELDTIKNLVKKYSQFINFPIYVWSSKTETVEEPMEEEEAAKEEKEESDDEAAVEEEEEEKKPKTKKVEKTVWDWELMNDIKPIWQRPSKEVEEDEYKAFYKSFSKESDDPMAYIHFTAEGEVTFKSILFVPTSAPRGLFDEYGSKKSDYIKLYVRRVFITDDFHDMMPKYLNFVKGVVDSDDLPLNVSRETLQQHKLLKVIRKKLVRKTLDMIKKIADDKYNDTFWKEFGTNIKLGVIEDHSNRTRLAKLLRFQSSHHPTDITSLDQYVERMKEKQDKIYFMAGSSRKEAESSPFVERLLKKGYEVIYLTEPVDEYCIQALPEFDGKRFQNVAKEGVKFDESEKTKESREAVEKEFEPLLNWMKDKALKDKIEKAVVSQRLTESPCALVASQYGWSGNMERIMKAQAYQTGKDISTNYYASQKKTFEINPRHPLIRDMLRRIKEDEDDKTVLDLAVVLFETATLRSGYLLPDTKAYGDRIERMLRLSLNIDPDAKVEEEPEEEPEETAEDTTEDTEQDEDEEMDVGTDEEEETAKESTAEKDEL

| binding to recombinant human GRP94 (recombinant human GRP94) | binding to recombinant rat GRP94 (recombinant rat GRP94) | binding to recombinant monkey GRP94 (recombinant monkey GRP94) | Molecule | protein aggregation index [1] | cell index at the end point (HCT8 cells) | cell growth inhibitory ability (HCT8 cells) | cell growth inhibitory ability (HCT116 cells) | cell index at the end point (HT29 cells) | cell growth inhibitory ability (HT29 cells) | cell index at the end point (LoVo cells) | cell growth inhibitory ability (LoVo cells) | tumor growth inhibition compared to PBS [2] [%] | changes in body weight [3] | changes in serum levels of liver and kidney functional indices (GOT, GPT, TBIL, BUN, and CREA) [3] | inhibitory activity against tumor growth compared to the controls ([2]; controls PBS and hIgG) |
| --- | --- | --- | --- | --- | --- | --- | --- | --- | --- | --- | --- | --- | --- | --- | --- |
| bind | bind | bind | B5: anti-GRP94 human IgG antibody; CDRs SEQ ID NOS: 1 to 6, VH SEQ ID NO: 7, VL SEQ ID NO: 8 (antibody, V domains shown, Amino acid sequence of heavy chain variable of GRP94 B5; Amino acid sequence of light chain variable of GRP94 B5) VH: EVQLLESGGGLVQPGGSLRLSCAASGFTFSNYYMSWVRQAPGKGLEWVSGIYPNSGSTYYADSVKGRFTISRDNSKNTLYLQMNSLRAEDTAVYYCARDPLHPARFPFDYWGQGTLVTVSS VL: QSVLTQPPSASGTPGQRVTISCTGSSSNIGNNAVSWYQQLPGTAPKLLIYADSHRPSGVPDRFSGSKSGTSASLAISGLRSEDEADYYCGAWDASLNAYVFGGGTKLTVL | low | 3.15±0.21 | excellent inhibitory activity | statistically significant; also recorded: excellent inhibitory activity | 2.32±0.02 | statistically significant; also recorded: excellent inhibitory activity | 2.69±0.04 | statistically significant; also recorded: excellent inhibitory activity | 30 | no significant changes | no significant changes |  |
| bind | bind | bind | E5: anti-GRP94 human IgG antibody; CDRs SEQ ID NOS: 9 to 14, VH SEQ ID NO: 15, VL SEQ ID NO: 16 (antibody, V domains shown, Amino acid sequence of heavy chain variable of GRP94 E5; Amino acid sequence of light chain variable of GRP94 E5) VH: EVQLLESGGGLVQPGGSLRLSCAASGFTFSNYAMSWVRQAPGKGLEWVSGISSSSGSTYYADSVKGRFTTSRDNSKNTLYLQMNSLRAEDTAVYYCARDRHPFSPNWFDYWGQGTLVTVSS VL: QSVLTQPPSASGTPGQRVTISCSGSPSNIGSNTVTWYQQLPGTAPKLLIYADSHRPSGVPDRFSGSKSGTSASLAISGLRSEDEADYYCASWDDSLNGYVFGGGTKLTVL | low | 3.33±0.31 | excellent inhibitory activity | statistically significant; also recorded: excellent inhibitory activity | 2.32±0.08 | statistically significant; also recorded: excellent inhibitory activity | 2.73±0.22 | statistically significant; also recorded: excellent inhibitory activity |  | no significant changes | no significant changes | did not exhibit inhibitory activity |
| bind | bind | bind | 3G7: anti-GRP94 human IgG antibody; CDRs SEQ ID NOS: 25 to 30, VH SEQ ID NO: 31, VL SEQ ID NO: 32 (antibody, V domains shown, Amino acid sequence of heavy chain variable of GRP94 3G7; Amino acid sequence of light chain variable of GRP94 3G7) VH: EVQLLESGGGLVQPGGSLRLSCAASGFTFSNYSMSWVRQAPGKGLEWVSGIYYGSGNKYYADSVKGRFTISRDNSKNTLYLQMNSLRAEDTAVYYCAKNLASFDYWGQGTLVTVSS VL: QSVLTQPPSASGTPGQRVTISCSGSSSNIGSNSVNWYQQLPGTAPKLLIYSNSHRPSGVPDRFSGSKSGTSASLAISGLRSEDEADYYCGTWDSSLSGYVFGGGTKLTVL | low | 3.40±0.16 | excellent inhibitory activity | statistically significant; also recorded: excellent inhibitory activity | 2.17±0.06 | statistically significant; also recorded: excellent inhibitory activity | 2.87±0.08 | statistically significant; also recorded: excellent inhibitory activity | 33 | no significant changes | no significant changes |  |
